According to US10005838B2, “Milk fat globule epidermal growth factor 8 regulates fatty acid uptake” (REGENTS OF THE UNIVERSITY OF CALIFORNIA, priority 2013, dated 2018):
Entries after “also recorded” stand apart in the source; their conditions may differ.

Columns and labels:
3T3-L1 adipocytes [1] = assay: Fluorescent fatty acid uptake assay in 3T3-L1 adipocytes; format: cell-based, mouse
Protocol: Uptake of fatty acids by differentiated 3T3-L1 adipocytes or primary mouse adipocytes was assessed using a QBT Fatty Acid Uptake Kit (Molecular Devices). Cells were plated in triplicate in 96-well plates at a concentration of 25,000 cells per well in 100 μl of DMEM/10% FCS. Plates were centrifuged at 1000 rpm for 4 minutes and incubated at 37° Celsius for 4-5 hours. Cells were then serum deprived for 1 hour before treatment with recombinant proteins for 30 minutes followed by the addition of QBT Fatty Acid Uptake solution. […] Plates were incubated in a fluorescent plate reader at 37° Celsius and kinetic readings were acquired every 20 seconds for 30 minutes. Fluorescence values were plotted against time and data was expressed as relative fluorescent units per minutes×10^3. […]

cardiac myocytes = assay: Fatty acid uptake in primary cardiac myocytes; format: cell-based, mouse
HepG2 cells = assay: Fatty acid uptake in HepG2 cells; format: cell-based; details: HepG2 human hepatocellular carcinoma cell line
AKT at serine 473 = assay: Western blot, AKT phosphorylation in 3T3-L1 cells; format: cell-based, mouse
Protocol: (§1) Following tissue preparation and SDS-PAGE, membranes were incubated with a polyclonal antibody against Akt (Cell Signaling Technology), or Rictor (Cell Signaling); Anti-PGC1 alpha antibody (abcam); a monoclonal antibody against Phospho-Akt Ser473 (Cell Signaling), Phospho-Rictor Thr1135 (Cell Signaling), GAPDH (Cell Signaling), or Mfge8 (R&D Systems). For evaluation of total AKT and total Rictor, membranes that been blotted for phospho-AKT and phospho-Rictor were stripped and reprobed. Plasma membrane and post-plasma membrane fractions were isolated as previously described (Nishiumi, S. & Ashida, H., Biosci Biotechnol Biochem 71, 2343-2346 (2007)).

Rictor = assay: Western blot, Rictor phosphorylation in HepG2 cells; format: cell-based, human
Protocol: as §1

3T3-L1 adipocytes [2] = assay: Glucose uptake assay (2-NBDG) in 3T3-L1 adipocytes; format: cell-based, mouse
Protocol: (§2) Uptake of […] by primary cells and cell lines was assessed using the fluorescent D-glucose analog 2-[N-(7-nitrobenz-2-oxa-1,3-diazol-4-yl)amino]-2-deoxy-D-glucose (2-NBDG) (Invitrogen). 2-NBDG has been successfully used as an alternative to 2-deoxyglucose in the measurement of glucose uptake in multiple cell types. Cells were plated in triplicate in 96-well plates at a concentration of 25,000 cells per well in 100 μl of DMEM/10% FCS. Plates were centrifuged at 1000 rpm for 4 minutes and incubated at 37° C. for 4-5 hours. Cells were then serum deprived for 1 hour before treatment with recombinant proteins for 20 minutes followed by the addition of 2-NBDG (100 μM) for 10 min at 37° C. in a humidified atmosphere of 5% CO2. Reaction was stopped by adding a twofold volume of ice-cold PBS and the wells were washed again with ice-cold PBS three times. The fluorescent signal before (autofluorescence) and after adding 100 μM 2-NBDG was measured using fluorescent plate reader at 37° C. (Molecular Device using the 485 nmex and 520 nmemiss filter set). The net increase in fluorescence was normalized to the lowest signal (0 cells/well). […]

primary WT adipocytes = assay: Glucose uptake assay (2-NBDG) in primary WT adipocytes; format: cell-based, mouse; details: insulin 1 μM
Protocol: as §2

AKT = assay: Western blot of antral tissue, AKT phosphorylation; set-up: species or system mouse; details: antral tissue treated for 30 minutes
Protocol: (§3) In FIG. 14A, the antral rings were treated for 15 min with PI3K inhibitor wortmannin (Wort.100 nm) followed by assessment of contractile force in response to MCh. N=3-4. ***P<0.0001. […] Western blot of antral tissue were treated for 30 minutes with or without rMfge8. […] Western blot of antrum were treated for 30 minutes with wortmannin (100 ng/ml) or Mfge8 and then with MCh for 15 minutes prior to quantifying active RhoA using a GST pull-down. […] PTEN activity assay measured the conversion of PIP3 to PIP2 in freshly isolated antrum with and without the rMfge8 or RGE construct (10 μg/ml) n=3-5. *P<0.05, **P<0.01, ***P<0.001.

PTEN = PTEN activity assay (conversion of PIP3 to PIP2) in freshly isolated antrum; format: biochemical, mouse; details: 10 μg/ml
Protocol: as §3

B1: rMfge8: recombinant Milk Fat Globule Epidermal Growth Factor 8, an integrin ligand, expressed in High 5 cells (protein)
chain: ASGDFCDSSLCLNGGTCLTGQDNDIYCLCPEGFTGLVCNETERGPCSPNPCYNDAKCLVTLDTQRGDIFTEYICQCPVGYSGIHCETETNYYNLDGEYMFTTAVPNTAVPTPAPTPDLSNNLASRCSTQLGMEGGAIADSQISASSVYMGFMGLQRWGPELARLYRTGIVNAWTASNYDSKPWIQVNLLRKMRVSGVMTQGASRAGRAEYLKTFKVAYSLDGRKFEFIQDESGGDKEFLGNLDNNSLKVNMFNPTLEAQYIKLYPVSCHRGCTLRFELLGCELHGCSEPLGLKNNTIPDSQMSASSSYKTWNLRAFGWYPHLGRLDNQGKINAWTAQSNSAKEWLQVDLGTQRQVTGIITQGARDFGHIQYVASYKVAHSDDGVQWTVYEEQGSSKVFQGNLDNNSHKKNIFEKPFMARYVRVLPVSWHNRITLRLELLGC
fatty acid uptake (BODIPY fatty acid analog) (3T3-L1 adipocytes [1]): significantly increased
fatty acid uptake in Mfge8−/− cardiac myocytes (cardiac myocytes): rescued
fatty acid uptake in HepG2 cells (HepG2 cells): increased
phosphorylation of AKT at serine 473 (AKT at serine 473): induced
phosphorylation of Rictor (Rictor): induced
effect of insulin on glucose uptake (3T3-L1 adipocytes [2]; insulin 1 μM): significantly inhibited
baseline glucose uptake (3T3-L1 adipocytes [2]; without insulin): no difference; also recorded: no effect
effect of insulin on glucose uptake (primary WT adipocytes): significantly inhibited
AKT phosphorylation in antral tissue (AKT): reduces
PTEN activity (PTEN): modulates
